Among the data in patent US20030092164A1 are Kd values, retold here.

Assay [1] has as its target TACI receptor. The assay can be described thus: I^125-labeled ZTNF4 binding to baby hamster kidney cells transfected with a TACI expression vector; Scatchard analysis.
Assay [2] deals with Ztnfr12 (human). The assay can be described thus: I^125-labeled ZTNF4 binding to baby hamster kidney cells transfected with Ztnfr12; Scatchard analysis.

Turning to ZTNF4 (ligand), the values for the Kd in assay [1] and in assay [2] were 1.25 nM and 1 nM, respectively.
